Tests used:
ZIKV NS5 WT = ZIKV NS5 WT (Zika virus, UniProt A0A024B7W1 2521-3423); assay: fluorescence titration; buffer B1; B1: 50 mM Tris-HCl pH 8.0, 150 mM NaCl, 1 mM MgCl2, 2 mM beta-mercaptoethanol, 10% glycerol, 20 C; B2: same with 100 mM NaCl, 20 C; settings: protein: recombinant; tags: N-terminal His6-SUMO, cleaved; label: etheno-A fluorescence; single strand
ZIKV NS5 MTase domain WT = ZIKV NS5 MTase domain WT (Zika virus, UniProt A0A142I5B9 2521-2785); assay: fluorescence anisotropy; buffer B2; B1: 50 mM Tris-HCl pH 8.0, 150 mM NaCl, 1 mM MgCl2, 2 mM beta-mercaptoethanol, 10% glycerol, 20 C; B2: same with 100 mM NaCl, 20 C; settings: protein: recombinant; tags: N-terminal His6; label: etheno-A fluorescence; single strand

AAAAAAAAAAAAAAAAAAAA (ssRNA, all A etheno-modified (1,N6-ethenoadenosine)) [epsilonA(p-epsilonA)19 20-mer ssRNA]
Kd (ZIKV NS5 WT): 500 nM | Kd (ZIKV NS5 MTase domain WT): 910 nM

Source: article PMC7413259, “Identification of the viral RNA promoter stem loop A (SLA)-binding site on Zika virus polymerase NS5”
